Eight substances from US20170336415A1 can be followed below.

In assay [1] the target is fucosylated haptoglobin (UniProt P00738). In words: sandwich ELISA as in Example 4, thiourea 0 to 1.5 M. (In general: In an ELISA, binding on a coated surface is turned into a signal by an enzyme label.)
The target of assay [2] is α-fetoprotein L3 (UniProt P02771). In words: direct adsorption ELISA, 1.2 M thiourea minus no thiourea.
Assay [3] addresses fucosylated haptoglobin (UniProt P00738). The description is as above.
Assay [4] deals with α-fetoprotein L3 (UniProt P02771). In words: direct adsorption ELISA, AFP-L3 immobilized, biotin-labeled PhoSL 1 µg/mL, no urea.
Assay [5] has as its target fucosylated haptoglobin (UniProt P00738). In words: sandwich ELISA as in Example 4, fHP 50 ng/mL, urea 0 to 9 M.
Assay [6] concerns the target α-fetoprotein L3 (UniProt P02771). Nature of the assay: direct adsorption ELISA, 5 M urea against no urea.
Assay [7] deals with fucosylated haptoglobin (UniProt P00738). Nature of the assay: direct adsorption ELISA, 5 M urea against no urea.
Assay [8] addresses α-fetoprotein L3 (UniProt P02771). Nature of the assay: direct adsorption ELISA, 1.2 M thiourea against no thiourea.
The target of assay [9] is fucosylated haptoglobin (UniProt P00738). Described as above.
The target is the same in assay [10]. Nature of the assay: sandwich ELISA as in Example 4 (biotin-labeled PhoSL), captured fHP washed with detergent liquid with 5 M urea, no urea in lectin solution.
Assay [11] shares this target. In words: sandwich ELISA, wash with 5 M urea minus wash without.
The target in assay [12] is α-fetoprotein L3 (UniProt P02771). In words: direct adsorption ELISA, AFP-L3 immobilized, biotin-labeled PhoSL, 1.2 M thiourea.
For assay [13] the target is unchanged. In words: direct adsorption ELISA, AFP-L3 immobilized, biotin-labeled PhoSL, no thiourea.
For assay [14] the target is unchanged. Nature of the assay: direct adsorption ELISA, 5 M urea minus no urea.
The target in assay [15] is fucosylated haptoglobin (UniProt P00738). Nature of the assay: direct adsorption ELISA, 5 M urea minus no urea.
For assay [16] the target is unchanged. Nature of the assay: sandwich ELISA, 5 M urea against no urea.
Assay [17] shares this target. In words: sandwich ELISA, wash with 5 M urea against wash without.
Assay [18] has the same target. Nature of the assay: sandwich ELISA as in Example 4 (biotin-labeled PhoSL), captured fHP washed with detergent liquid without urea or thiourea.
Assay [19] shares this target. In words: sandwich ELISA, wash with 1.2 M thiourea against wash without.
Assay [20] has the same target. In words: direct adsorption ELISA, fHP immobilized, biotin-labeled PhoSL, no thiourea.
For assay [21] the target is unchanged. Nature of the assay: direct adsorption ELISA, fHP immobilized, biotin-labeled PhoSL 1 µg/mL, 5 M urea.
The target is the same in assay [22]. Nature of the assay: direct adsorption ELISA, fHP immobilized, biotin-labeled PhoSL 1 µg/mL, no urea.
For assay [23], the target named is α-fetoprotein L3 (UniProt P02771). In words: direct adsorption ELISA, AFP-L3 immobilized, biotin-labeled PhoSL 1 µg/mL, 5 M urea.
The target in assay [24] is fucosylated haptoglobin (UniProt P00738). In words: sandwich ELISA, fHP 200 ng/mL captured by anti-haptoglobin antibody, biotin-labeled lectin 1 µg/mL, no urea.
Assay [25] shares this target. Nature of the assay: sandwich ELISA as in Example 4 (biotin-labeled PhoSL), captured fHP washed with detergent liquid with 1.2 M thiourea, none in lectin solution.
For assay [26] the target is unchanged. In words: sandwich ELISA, fHP 200 ng/mL captured by anti-haptoglobin antibody, biotin-labeled lectin 1 µg/mL, 5 M urea.
Assay [27] has the same target. In words: sandwich ELISA, wash with 1.2 M thiourea minus wash without.
The target is the same in assay [28]. In words: direct adsorption ELISA, fHP immobilized, biotin-labeled PhoSL, 1.2 M thiourea.
Assay [29] shares this target. In words: sandwich ELISA, 5 M urea minus no urea.
Assay [30] shares this target. Nature of the assay: magnetic bead assay, signal with fHP divided by signal without fHP, 5 M urea.
The target is the same in assay [31]. In words: magnetic bead assay, signal with fHP divided by signal without fHP, no urea.
For assay [32] the target is unchanged. Nature of the assay: magnetic bead assay, 5 M urea against no urea.
The target is the same in assay [33]. In words: magnetic bead assay: fHP 0.45 µg/mL mixed with recombinant lectin 5 µg/mL, captured on anti-haptoglobin antibody beads, HRP anti-FLAG detection, 5 M urea.
Assay [34] shares this target. Nature of the assay: magnetic bead assay: fHP 0.45 µg/mL mixed with recombinant lectin 5 µg/mL, captured on anti-haptoglobin antibody beads, HRP anti-FLAG detection, no urea.
For assay [35] the target is unchanged. Nature of the assay: magnetic bead assay, 5 M urea minus no urea.
Assay [36] has the same target. Nature of the assay: sandwich ELISA as in Example 4, captured fHP, biotin-labeled AML, no urea.
Assay [37] shares this target. In words: sandwich ELISA as in Example 4, captured fHP, biotin-labeled AML, 5 M urea.
The target is the same in assay [38]. Nature of the assay: sandwich ELISA as in Example 4, captured fHP, biotin-labeled NSL, 5 M urea.
For assay [39] the target is unchanged. In words: sandwich ELISA as in Example 4, captured fHP, biotin-labeled NSL, no urea.
The target is the same in assay [40]. In words: sandwich ELISA as in Example 4, captured fHP, biotin-labeled PTL, 5 M urea.
For assay [41] the target is unchanged. Nature of the assay: sandwich ELISA as in Example 4, captured fHP, biotin-labeled PTL, no urea.

Sequence of α-fetoprotein L3 (P02771 19-609 limits assumed): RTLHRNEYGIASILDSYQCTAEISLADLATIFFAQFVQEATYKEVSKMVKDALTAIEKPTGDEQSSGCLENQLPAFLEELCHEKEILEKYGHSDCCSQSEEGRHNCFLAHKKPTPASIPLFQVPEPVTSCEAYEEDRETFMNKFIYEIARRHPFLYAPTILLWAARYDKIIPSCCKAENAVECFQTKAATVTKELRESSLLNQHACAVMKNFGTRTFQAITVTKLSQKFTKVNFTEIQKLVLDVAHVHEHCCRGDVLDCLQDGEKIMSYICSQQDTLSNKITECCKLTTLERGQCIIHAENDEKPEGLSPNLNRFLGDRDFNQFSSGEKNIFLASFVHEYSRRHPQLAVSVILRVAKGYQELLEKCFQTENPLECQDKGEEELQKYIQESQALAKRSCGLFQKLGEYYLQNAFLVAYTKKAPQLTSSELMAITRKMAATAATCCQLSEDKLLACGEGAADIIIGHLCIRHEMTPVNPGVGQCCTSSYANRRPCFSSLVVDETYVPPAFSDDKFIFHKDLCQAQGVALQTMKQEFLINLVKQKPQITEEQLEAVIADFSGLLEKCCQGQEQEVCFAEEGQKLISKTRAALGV
Sequence of fucosylated haptoglobin (P00738 19-406 limits assumed): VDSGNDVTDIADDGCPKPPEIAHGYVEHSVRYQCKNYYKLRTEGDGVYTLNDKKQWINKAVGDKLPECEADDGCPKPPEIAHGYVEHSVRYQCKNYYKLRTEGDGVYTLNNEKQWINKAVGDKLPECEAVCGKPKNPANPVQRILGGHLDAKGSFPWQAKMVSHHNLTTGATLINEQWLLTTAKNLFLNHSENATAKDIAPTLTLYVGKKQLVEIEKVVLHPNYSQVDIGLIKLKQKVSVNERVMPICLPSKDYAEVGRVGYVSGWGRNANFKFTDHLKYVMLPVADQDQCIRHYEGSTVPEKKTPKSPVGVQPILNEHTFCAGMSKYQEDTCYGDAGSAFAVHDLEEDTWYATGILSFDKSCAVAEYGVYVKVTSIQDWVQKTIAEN

In [1], “Pholiota squarrosa lectin (PhoSL), biotin-labeled” returned an increased rate of the signals against no thiourea of 1.2 to 4.1 times. Also, the Increased amount of signal (absorbance (450 nm - 630 nm)) in [2] is 0.114; in assay [3], 0.681; in assay [11], 0.457; in assay [14], 0.124; in assay [15] it was 0.471; in assay [27] it was 0.364. In [29], the Increased amount of signal (absorbance (450 nm - 630 nm)) is 0.531. The Reaction value (S - N)urea 0M (absorbance (450 nm - 630 nm)) in assay [4] worked out at 0.008; in assay [22], 0.253; in assay [24], 0.265. In [5], this substance returned an increased rate of the signals against no urea of 1.2 to 2.8 times. For the same substance, the Increased rate of signal in assay [6] was 16.5 fold; in assay [7], 2.86 fold; in assay [8] it was 39 fold; in assay [9] it was 2.89 fold; in assay [16] it was 3 fold; in assay [17], 1.84 fold. Besides, in [19], the Increased rate of signal amounted to 1.67 fold. In addition, the Reaction value (S - N)urea 5M (absorbance (450 nm - 630 nm)) in [10] is 1; in assay [21], 0.724; in assay [23], 0.132; in assay [26], 0.796. Besides, the Reaction value (S - N)thiourea 1.2M (absorbance (450 nm - 630 nm)) in assay [12] is 0.117; in [25], 0.909; in assay [28], 1.04. For the same substance, the Reaction value (S - N)thiourea 0M (absorbance (450 nm - 630 nm)) in assay [13] came out at 0.003; in [20], 0.36. The same substance had a Reaction value (S - N)0M (absorbance (450 nm - 630 nm)) in [18] of 0.545.
As to “Biotin-labeled Aleuria aurantia lectin (from UniProt P18891 2-313)”, the Increased rate of signal in [16] stood at 0.88 fold. Moreover, the Reaction value (S - N)urea 0M (absorbance (450 nm - 630 nm)) in assay [24] is 0.877. The Reaction value (S - N)urea 5M (absorbance (450 nm - 630 nm)) in [26] was 0.774. The Increased amount of signal (absorbance (450 nm - 630 nm)) in [29] is -0.103.
In the case of PhoSL recombinant lectin, in [30], the Reaction value (S/N)urea 5M turned out to be 26.3. In [31], the Reaction value (S/N)urea 0M is 6.83. Moreover, the Increased rate of signal in [32] stood at 1.56 fold. In addition, the Reaction value (S - N)urea 5M (absorbance (450 nm - 630 nm)) in assay [33] was 0.708. In addition, the Reaction value (S - N)urea 0M (absorbance (450 nm - 630 nm)) in assay [34] was found to be 0.455. The same substance registered an Increased amount of signal (absorbance (450 nm - 630 nm)) in [35] of 0.253.
As to PhoSL peptide, biotin-labeled, in assay [16], the Increased rate of signal was 1.32 fold. This substance also registered a Reaction value (S - N)urea 0M (absorbance (450 nm - 630 nm)) in assay [24] of 0.162. The substance further displayed a Reaction value (S - N)urea 5M (absorbance (450 nm - 630 nm)) in [26] of 0.214. In assay [29], this substance displayed an Increased amount of signal (absorbance (450 nm - 630 nm)) of 0.052.
For the substance “Amanita muscaria lectin (AML), biotin-labeled”, the Increased rate of signal in assay [16] was 20.3 fold. This substance gave a Reaction value (S - N)urea 0M (absorbance (450 nm - 630 nm)) in assay [36] of 0.027. The substance also had a Reaction value (S - N)urea 5M (absorbance (450 nm - 630 nm)) in [37] of 0.548. The same substance displayed an Increased amount of signal (absorbance (450 nm - 630 nm)) in [29] of 0.521.
On to “Stropharia rugosoannulata lectin (SRL), biotin-labeled”, for which the Increased rate of signal in assay [16] was 2.01 fold. In assay [24], this substance yielded a Reaction value (S - N)urea 0M (absorbance (450 nm - 630 nm)) of 0.43. This substance also yielded a Reaction value (S - N)urea 5M (absorbance (450 nm - 630 nm)) in assay [26] of 0.863. In assay [29], this substance had an Increased amount of signal (absorbance (450 nm - 630 nm)) of 0.433.
Substance “Naematoloma sublateritium lectin (NSL), biotin-labeled” came in with an Increased rate of signal in assay [16] of 3.18 fold. This substance also returned a Reaction value (S - N)urea 5M (absorbance (450 nm - 630 nm)) in assay [38] of 1.34. In assay [39], this substance gave a Reaction value (S - N)urea 0M (absorbance (450 nm - 630 nm)) of 0.423. Further, the Increased amount of signal (absorbance (450 nm - 630 nm)) in assay [29] was determined as 0.922.
In turn, “Pholiota terrestris lectin (PTL), biotin-labeled” returned a Reaction value (S - N)urea 5M (absorbance (450 nm - 630 nm)) in assay [40] of 1.28. In [16], this substance had an Increased rate of signal of 2.37 fold. Also, in [41], the Reaction value (S - N)urea 0M (absorbance (450 nm - 630 nm)) was 0.542. Besides, in [29], the Increased amount of signal (absorbance (450 nm - 630 nm)) is 0.743.
